Columns and labels:
[1] = biological target: T1, human Siglec-7 expressed on human cells (primary monocytes, dendritic cells, macrophages, NK cells, … (human, UniProt Q9Y286 19-467)); assay: FACS, human primary monocytes, 10 ug/ml mAb
T1 construct: Endogenous receptor on cells; also called Siglec-7 receptor

[2] = biological target: T2, Siglec-7-Fc (plate immobilized) (human, UniProt Q9Y286 19-357, limits assumed); assay: RBC solid adhesion assay, plate-coated Siglec-7-Fc, antibody 0.5 or 1.0 ug/ml; % of RBC binding without antibody
T2 construct: also called Siglec-7-Fc protein; immobilized Siglec-7; not shown: Fc part
T2 sequence (Q9Y286 19-357 limits assumed): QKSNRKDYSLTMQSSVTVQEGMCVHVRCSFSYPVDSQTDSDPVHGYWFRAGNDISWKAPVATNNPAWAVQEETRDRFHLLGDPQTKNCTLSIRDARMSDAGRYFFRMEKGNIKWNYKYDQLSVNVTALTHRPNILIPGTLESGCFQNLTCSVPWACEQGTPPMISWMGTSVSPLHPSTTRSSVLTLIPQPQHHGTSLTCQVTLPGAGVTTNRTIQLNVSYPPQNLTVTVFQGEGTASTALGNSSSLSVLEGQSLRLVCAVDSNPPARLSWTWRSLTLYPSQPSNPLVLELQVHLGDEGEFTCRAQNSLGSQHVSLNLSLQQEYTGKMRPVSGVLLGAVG
How it was run: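 Plates coated overnight at RT with 5 μg/ml Siglec-7-Fc and blocked in PBS with BSA and 1 mM CaCl₂. Antibody (0.5 or 1.0 μg/ml) bound 1 h at RT, then RBCs (3.0×10⁶ cells/ml) added for 1 h at RT. Bound RBCs lysed and detected by peroxidase at 450 nm, expressed as % of binding without antibody.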

[3] = biological target: T1, human Siglec-7 expressed on human cells …; assay: cell-based or functional assay
F48A = biological target: T3, F48A (human, UniProt Q9Y286); assay: flow cytometry on HEK-293T cells expressing the mutant; mean % of wild-type signal (range of duplicates)
T3 construct: clone of the siglec-7 mutation library; also called Siglec-7 F48A
T3 sequence (Q9Y286 19-467 F48A limits assumed): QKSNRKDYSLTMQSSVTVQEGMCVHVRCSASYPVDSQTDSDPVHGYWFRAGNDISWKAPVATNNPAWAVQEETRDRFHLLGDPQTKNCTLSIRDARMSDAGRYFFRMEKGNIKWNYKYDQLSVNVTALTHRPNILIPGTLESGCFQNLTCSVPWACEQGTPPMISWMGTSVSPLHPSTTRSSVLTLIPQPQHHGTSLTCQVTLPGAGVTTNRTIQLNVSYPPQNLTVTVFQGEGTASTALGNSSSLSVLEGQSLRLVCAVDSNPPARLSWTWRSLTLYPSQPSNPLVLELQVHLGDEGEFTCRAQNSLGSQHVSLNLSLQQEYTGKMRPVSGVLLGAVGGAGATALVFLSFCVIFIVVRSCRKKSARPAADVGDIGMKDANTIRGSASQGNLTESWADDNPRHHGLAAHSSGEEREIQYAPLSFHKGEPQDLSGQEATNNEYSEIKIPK

W74A = biological target: T4, W74A (human, UniProt Q9Y286); assay: as above
T4 construct: clone of the siglec-7 mutation library; also called Siglec-7 W74A
T4 sequence (Q9Y286 19-467 W74A limits assumed): as the sequence (Q9Y286 19-467 F48A limits assumed) above, with A30F, W56A counted along it

[4] = biological target: T5, Histidine-tagged human Siglec-7 (NovoProtein) (human, UniProt Q9Y286 19-357, limits assumed); assay: SPR (BiaCore T200, 25 C), antibody captured on anti-mouse IgG, Siglec-7-His 100 nM, single-concentration kinetics
T5 construct: Bought protein; also called purified Siglec-7-his tagged protein; not shown: histidine tag
T5 sequence (Q9Y286 19-357 limits assumed): as the sequence (Q9Y286 19-357 limits assumed) above
Description: SPR data was collected at a rate of 10 Hz at 25′ C on a BiaCore T200 instrument. Data analysis was performed using BiaCore T200 Evaluation Software, version 2.0. HBS-EP+ (100 mM HEPES, 1.5 M NaCl, 30 mM EDTA, 0.5% v/v Surfactant P20, pH 7.4) was used as running buffer and for preparing reagents.
Mouse-derived antibodies (25 nM) against Siglec-7 were captured (60 s contact time, 30 μL/min flow rate, 0 s stabilization time) on a CM5 sensor chip (GE Healthcare) immobilized with anti-mouse IgG. Histidine-tagged human Siglec-7 (NovoProtein) was then flowed over the captured anti-Siglec-7 surface (120 s contact time, 30 μL/min flow rate, 300 s dissociation time). Concentration of antigen ranged from 5 nM to 100 nM, depending on information obtained from an initial screen. Duplicate single-concentration trials were performed and bracketed by a blank (0 nM antigen) sample. The chip surface was regenerated in between cycles using 10 mM glycine-HCl, pH1.7 (60 s contact time, 30 μL/min flow rate, 60 s stabilization time). The resulting SPR signal was obtained as the difference in response from measurements performed on a blank flow cell.
Affinity constants (KD) were calculated from the ratio kd/kₐ. For one antibody (clone 1E8), we validated the single-concentration analysis with a multiple-concentration approach (five concentrations of antigen used, plus one blank).

T1 sequence (Q9Y286 19-467): as the sequence (Q9Y286 19-467 F48A limits assumed) above, with A30F counted along it

% Positive [1]: 99.2%
MFI [1]: 417
Percent RBC Binding to Siglec-7 [2]: 88.4%
EC50 of Siglec-7 cell surface downregulation, primary human dendritic cells, donor 362 [3]: 0.144 nM
EC50 of Siglec-7 cell surface downregulation, primary human dendritic cells, donor 363 [3]: 0.35 nM
EC50 of Siglec-7 cell surface downregulation, primary human dendritic cells, donor 364 [3]: 0.103 nM
EC50 of Siglec-7 cell surface downregulation, primary human dendritic cells, donor 365 [3]: 0.0713 nM
Binding Reactivity (% WT) (F48A): 159 % WT
Binding Reactivity (% WT) (W74A): 101 % WT
Kd [4]: 3 nM
B1: anti-Siglec-7 antibody 10B5 (antibody, V domains shown)
VH: QVHLQQSGPELVKPGASVKISCKASGYAFTNCWMNWVRQRPGKGLDWIGRIFPGNGHTNYSGKFKDKATLTEDKSSSTAYMQLSSLTSEDSAVYFCARDYSDYYFDYWGQGTTLTVSS
VL: DVQMTQTTSSLSASLGDRVTISCRASQDINTYLNWYQQKPDGTVKLLIYYTSRLHSGVPSRFSGSGSGTDYSLTISNLEQEDIATYFCQQGNTLPWTFGGGTKLEIK
notes: that light chain holds several Z and differs in its CDRs from S7-10B5.1 / 10B5L1; also called S7-10B5; mAb S7-10B5

From patent publication US20200277374A1 (Alector, published 2020)
